Five molecules from article PMC12316266, “Biochemical analysis of human eIF4E-DCP2 interaction: Implications for the relationship between translation initiation and decapping” can be followed below.

The target in one series is Dcp2 E147Q,E148Q (Homo sapiens, UniProt Q8IU60 1-420, E147Q;E148Q). The experiment in a line: MST; no Mg2+ (implied); MST: 100 mM NaCl, 50 mM Tris-Cl pH 7.9, 1 mM DTT, 100 ug/ml BSA, 37 C (10 mM MgCl2 only when stated), 4 nM RNA; EMSA: same buffer plus 5% glycerol, no Mg2+, 24. The settings on record: protein: recombinant; tags: His6-protein G-TEV tag, removed by TEV; label: 3' Cy5; single strand.

For series [1], the target named is T1, eIF4E (Homo sapiens, UniProt P06730 1-217). The experiment in a line: EMSA; 10 mM MgOAc; 2.5 uM eIF4E; Cy5 label implied; MST: 100 mM NaCl, 50 mM Tris-Cl pH 7.9, 1 mM DTT, 100 ug/ml BSA, 37 C (10 mM MgCl2 only when stated), 4 nM RNA; EMSA: same buffer plus 5% glycerol, no Mg2+, 24. The settings on record: protein: recombinant; tags: His6-protein G-TEV tag, removed by TEV; label: 3' Cy5; single strand.
T1 sequence (P06730 whole entry): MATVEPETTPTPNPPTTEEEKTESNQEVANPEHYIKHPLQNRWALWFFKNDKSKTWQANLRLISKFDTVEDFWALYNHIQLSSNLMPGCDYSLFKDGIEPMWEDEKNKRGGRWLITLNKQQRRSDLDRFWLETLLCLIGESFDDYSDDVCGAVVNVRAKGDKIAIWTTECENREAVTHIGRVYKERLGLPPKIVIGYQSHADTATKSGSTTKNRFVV

For series [2], the target named is T2, Dcp2 (Homo sapiens, UniProt Q8IU60 1-420). The experiment in a line: MST; no Mg2+; Hill coefficient 1.56 ± 0.49; MST: 100 mM NaCl, 50 mM Tris-Cl pH 7.9, 1 mM DTT, 100 ug/ml BSA, 37 C (10 mM MgCl2 only when stated), 4 nM RNA; EMSA: same buffer plus 5% glycerol, no Mg2+, 24. The settings on record: protein: recombinant; tags: His6-protein G-TEV tag, removed by TEV; label: 3' Cy5; single strand.

Series [3] concerns the target T2, Dcp2. Put plainly: MST; no Mg2+; RNA pre-incubated with 80 nM eIF4E; Hill coefficient 1.99 ± 0.83; MST: 100 mM NaCl, 50 mM Tris-Cl pH 7.9, 1 mM DTT, 100 ug/ml BSA, 37 C (10 mM MgCl2 only when stated), 4 nM RNA; EMSA: same buffer plus 5% glycerol, no Mg2+, 24. Conditions: protein: recombinant; tags: His6-protein G-TEV tag, removed by TEV; label: 3' Cy5; single strand.

Series [4] addresses T2, Dcp2. The experiment in a line: MST; no Mg2+; Hill coefficient 1.89 ± 0.78; MST: 100 mM NaCl, 50 mM Tris-Cl pH 7.9, 1 mM DTT, 100 ug/ml BSA, 37 C (10 mM MgCl2 only when stated), 4 nM RNA; EMSA: same buffer plus 5% glycerol, no Mg2+, 24. The settings on record: protein: recombinant; tags: His6-protein G-TEV tag, removed by TEV; label: 3' Cy5; single strand.
Series [5] addresses T1, eIF4E. Put plainly: EMSA; 10 mM MgOAc; 2.5 uM eIF4E; MST: 100 mM NaCl, 50 mM Tris-Cl pH 7.9, 1 mM DTT, 100 ug/ml BSA, 37 C (10 mM MgCl2 only when stated), 4 nM RNA; EMSA: same buffer plus 5% glycerol, no Mg2+, 24. Conditions: protein: recombinant; tags: His6-protein G-TEV tag, removed by TEV; label: 3' Cy5 (implied); single strand.
Series [6] addresses T1, eIF4E. The experiment in a line: EMSA; no Mg2+; 625 nM eIF4E; MST: 100 mM NaCl, 50 mM Tris-Cl pH 7.9, 1 mM DTT, 100 ug/ml BSA, 37 C (10 mM MgCl2 only when stated), 4 nM RNA; EMSA: same buffer plus 5% glycerol, no Mg2+, 24. Conditions: protein: recombinant; tags: His6-protein G-TEV tag, removed by TEV; single strand.
Series [7] has as its target T2, Dcp2. The experiment in a line: MST; no Mg2+; Hill coefficient 1.22 ± 0.39; MST: 100 mM NaCl, 50 mM Tris-Cl pH 7.9, 1 mM DTT, 100 ug/ml BSA, 37 C (10 mM MgCl2 only when stated), 4 nM RNA; EMSA: same buffer plus 5% glycerol, no Mg2+, 24. The settings on record: protein: recombinant; tags: His6-protein G-TEV tag, removed by TEV; label: 3' Cy5; single strand.

Consider AGGAAAUAAGAGAGAAAAGAAGAGUAAGAAGAAAUAUAAGAGC (ssRNA, 5' m7GpppAm cap (2'-O-methyl on first A)) [m7G-capped 43-mer RNA, 3' Cy5], for which the values for the binding result with Dcp2 E147Q,E148Q and in the series with eIF4E [1] were “no binding” and “binds”, respectively. Besides, the “apparent K (half saturation)” value came out at 157 ± 26 nM with Dcp2 [2] and 72 ± 20 nM with Dcp2 [3].
Take AGGAAAUAAGAGAGAAAAGAAGAGUAAGAAGAAAUAUAAGAGC (ssRNA, 5' monophosphate) [5' monophosphate 43-mer RNA]: in the series with Dcp2 [4], the “apparent K (half saturation)” value is 96 ± 16 nM.
Take AGGAAAUAAGAGAGAAAAGAAGAGUAAGAAGAAAUAUAAGAGC (ssRNA, 5' ApppAm cap (2'-O-methyl on first A)) [A-capped 43-mer RNA]: the binding result with eIF4E [5] was “no binding”.
In the case of AGGAAAUAAGAGAGAAAAGAAGAGUAAGAAGAAAUAUAAGAGC (ssRNA, 5' m7GpppAm cap (2'-O-methyl on first A)) [m7G-capped 43-mer RNA, 3' unlabeled], the binding result in the series with eIF4E [6] is listed as “binds”.
For the molecule AGGAAAUAAGAGAGAAAAGAAGAGUAAGAAGAAAUAUAAGAGC (ssRNA, 5' triphosphate) [5' triphosphate 43-mer RNA], the binding result in the series with eIF4E [1] is given as “no binding”. Also, the “apparent K (half saturation)” value in the series with Dcp2 [7] turned out to be 151 ± 29 nM.
